Assay results published in the nanobody polyreactivity screen of Harvey et al. (2022).

Test: yeast display, Sf9 membrane polyspecificity reagent, FACS + sequencing; frameworks hold sequencing errors
Summary of the method: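 Genes from sorted yeast were amplified by colony PCR, read by MiSeq 2 × 250 sequencing and filtered on CDR length. These cells carried a synthetic nanobody library in Saccharomyces cerevisiae BJ5465 and were sorted by FACS into low and high (top ~1%) gates on anti-HA and streptavidin fluorescence. Polyreactivity is labelled according to the gate of origin.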

Sequence	polyreactivity (PSR sort gate)
QVQLVESGGGLVQAGGSLRLSCGASGSIFPDYAMGWYRQAPGKERELVAAITWSGGSTYYADSVKGRFTISRDNAKNTVNLQMNSLKPEDTAVYYCAAQLDPEWRGYFDQYGYDYWGQGTQVTVST	low polyreactivity
QVQLVESGGGLVQAGGSLRLSCGASGSIRANMGSYRQAPGKETELVAVITTSGASTSYAVSVKGRFTISRDNAKNTVYLQMNRLKPEDTAVYYCAADIYYYPHTYYRDGYYYWGQGSQVTVSS	low polyreactivity
QVQLVESGGGLVQAGGSLRLSCGASGSTFRLYALGWYRQAPGNEWAFVAAISFRGGSTYYADSVKGRFTISRDNAQNTVYLQMNSLKPEDTAVYYCAAEVGTGGVRTPRYEYWGQGTQVTVSS	high polyreactivity
QVQLVESGGGLVQAGGSLRLSCGASGSTSKYYAMGWYRQAPGKERELVAAITWSDVSTYFADSVKGRFTISRDNAKHNVYLQMNSLKPEDTAVYYCNAGYDYWGQGTQVTVSS	low polyreactivity
QVQLVESGGGLVQAGGSLRLSCGASGTIFDYYVMGWYRQAPVKERELVAAISWSGASTYYADSVKGRFTISRDNAKNTVYLQMNSLKPDDTAVYYCAADYGVNTLIDYDYWGQGTQVTVSS	low polyreactivity
QVQLVESGGGLVQAGGSLRLSCPASGFNFLYYAMGWYRQAPGTEREFVAAIRSSGTTTSYADSVKGRFTISRDNAKNTVYLEMISLKPVDTAVYYCAAGYFGPQQYYYWGQGSQVTVSS	high polyreactivity
QVQLVESGGGLVQAGGSLRLSCPASGFNFRYYAIGWYRQAPGKERQLVAAISRIGGSTNYADSVKGRFTISRDNAKNTVYLQLNSLKPEDTAVYYCAVAEGYSPAYLRDYWGQGSQVTVSS	high polyreactivity
QVQLVESGGGLVQAGGSLRLSCPASGFTFKSYAMGWYRQAPGKERELVAAISRGGSTYYADSVKGRFTISRDNAKNTVYLQMNSLKPEDTAVYYCNKTRYSRSYYEYDYWGQGTQVTVSS	low polyreactivity
QVQLVESGGGLVQAGGSLRLSCPASGFTFTIYAMGWYRQAPGKERELLATISGRAGRTYYADSVKGRFTISRDNAKNTVYLQMNSLKPEDTAVYDCAARVWYQGYKSMGYWGQGTQVTVSS	high polyreactivity
QVQLVESGGGLVQAGGSLRLSCPASGFTFYGYAMGWYRQAPGKERELVAAIRYSGGSTYYADSVKGRFTISRDNAKNTVYLQMNSLKPEDTAVYYCNKRLIYYRGTYYSRRFDYWGQGTQVTVSS	high polyreactivity
QVQLVESGGGLVQAGGSLRLSCPASGFTFYRYAMGWYRQSPGKEREFVAAITWSGGSTYYADSVKGRFTISRDNAKNTVYLQMNSLKPEDTAVYYCAAYVALDGTREYDYWGQGTQVTVSS	high polyreactivity
QVQLVESGGGLVQAGGSLRLSCPASGGTFSFYTMGGYRQSPGKEREWVAAIDSTGRTNYADSVKGRFTISRDYPKNTVYLQMNRLIPEDTAVYYCAAVSPTYPYTFYRYNYWGQGTQVTVSS	low polyreactivity
QVQLVESGGGLVQAGGSLRLSCPASGIIFKGYAMGWYRQAPGKERELVAAISQSGGSTYYADSVKGRFTISRDNAKNTVYLQMNSLKPEDTAVYYCNARYSRVVPRYYYWGQGTQVTVSS	high polyreactivity
QVQLVESGGGLVQAGGSLRLSCPASGIIFNDYAMGWYRQAPGKEREMVAAITSNGDNTYYADSVKGRFTISRDNAKNTVYLQMNSLKPEDTAVYYCAVDGSFAADFDNYLEEYGYWGQGTQVTVSS	low polyreactivity
QVQLVESGGGLVQAGGSLRLSCPASGIIFNLYAMGWYRQAPGKERELVAAISWSGGSTDYADSVKGRFTISRDNAKNTVYLQMNSLKPEDTAVYYCATSFLYPYFDEDDYWGQGTQVTVSS	high polyreactivity
QVQLVESGGGLVQAGGSLRLSCPASGITFGSYAMGWYRQAPGKERELVAAITSGGGTNYADSEKGRFTISRDNAKNTVYLHMNSLKPEDTAGYYCAARYYYLGTRYGYWGQGTQVTVSS	low polyreactivity
QVQLVESGGGLVQAGGSLRLSCPASGITVTAYAMGWYRQAPGKERELVATINSTGITNYADSVKGRFTISRDNAKNTVYLQMNSLKPEDTAVYYCAADLMDSSSYDGMDYWGQGTQVTVSS	low polyreactivity
QVQLVESGGGLVQAGGSLRLSCPASGLIIGVYAMGWYRQEPGKERELVAAITDGGSTYYADSVKGRFTISRDNAKNTVYLQMNSLKPEDTAVYYCNAEFRSSDYDYWGQGTQVTVSS	low polyreactivity
QVQLVESGGGLVQAGGSLRLSCPASGLNFTSYAMGWYRQAPGKERELVAAITWSGSSTYYADSVKGRFTISRDNAKNTVYLQMNSLKPEDTAVYYCAAYRYGRIYRQYAYDYWGQGTQVTVSS	high polyreactivity
QVQLVESGGGLVQAGGSLRLSCPASGNIFGNNAMGWYRQAPGKERELVAAIDGSGGSTYYADSVKGRFTISRDKAKNTVYLQMNSLKPEDTAVYYCAKTAVIWRTWRTVPSPGYHFGYWGQGTQVTVSS	low polyreactivity
QVQLVESGGGLVQAGGSLRLSCPASGRIFLGNLMGWYRQAPGKERELVAAISWSGGSTYADSVKGRFTISRDNAKNTVYFQMNSLKPEDTAVYYCAKDEGTFYNSYDYWGQGTQVTVSS	low polyreactivity
QVQLVESGGGLVQAGGSLRLSCPASGRIFPRYAMGWYRPAPGKERELVARITRRGGITYYADSVKGRFTISRDNAQNTVYLEMNSLKPEDTAVYYCNVDYYRGGDFSYGYDYWGQGTQLTVSS	high polyreactivity
QVQLVESGGGLVQAGGSLRLSCPASGRIFYYNAIGWYRQAPGKERELVATITRAGGTYYADSVKGRFTISRDNAKNTVYLQMNSLKPEDTAVYYCAKRHPIVDDYKGDYWGQGTQVTVSS	low polyreactivity
QVQLVESGGGLVQAGGSLRLSCPASGRIIAWYAMGWYRQAPGKERELVAVITSSGGSTYYADSVKGRFTISRDNAKNTVYFMMNRLKPEDTAVYYCARKVVSPAWSHDFYYWGLGTQVTVSS	low polyreactivity
QVQLVESGGGLVQAGGSLRLSCPASGRTFPGYSKGWYRQAPGKERELVATITGNGGSTYYADSVKGRFTISRENAKNTVYLQMNSLKPEDTAVYYCAGGRRRPYVRAYRGTDYWVQGTQVTVSS	low polyreactivity
QVQLVESGGGLVQAGGSLRLSCPASGRTFYKNAMGWYRQAPGKERELVAAITSGGSTNYADSVKGRFTISRDNAKNTVYLQMNSLKSEDTAVYYCAAQQFPYYRSRYSYINKYDYWGQGTQVTVSS	high polyreactivity
QVQLVESGGGLVQAGGSLRLSCPASGSIFDPYAMGWYRQAPGKERELVAAITASGSSTYYADSVKGRFTISRDNAKNTVYLQMNSLKPEDTAVYYCAADRAKWEYLLSWLGYDYWGQGTQVTVSS	low polyreactivity
QVQLVESGGGLVQAGGSLRLSCPASGSIFFYAMGWYRQAPGKERELVADITYTGGSKYADSVKGRFTISRDNAKNTVYLQMNSLKPEDTAFYYCANLDGGLFDYWGQGTQVTVSS	low polyreactivity
QVQLVESGGGLVQAGGSLRLSCPASGSIFGSYAMGWYRQAPGKERELVASITRVDSTNYADSVKGRFTISRDNAKNTVYLQMNRLKPEDTAVYYCNAGKTIDYRDGVGYDHWGQGTQVTVSS	low polyreactivity
QVQLVESGGGLVQAGGSLRLSCPASGSILYSYAMGWYRQAHGKERELVAAITGDGASTNYADSVKGRFTISRDNAKNTVYFQMNSLKPEDTAVYYCNAGRESDDVYEGSQRIGQFDYWGQGTLVTVSS	low polyreactivity
